Data from patent US20250051463A1 (AstraZeneca / MedImmune, published 2025).

Key:
[1] = target: T1, human CD123 (IL3Rα) on cells (human, UniProt P26951 19-378); test: flow cytometry on EOL-1 cells, geometric mean
T1 construct: whole, on cells; also called human IL3Rα expressed on 293 cells; AD293hIL3Rα
Method: On the day of plating, cells were spun down at 1500 rpm for 3 minutes, counted, and resuspended to a final concentration of 1×10⁶ cells/ml. […] Plates were incubated at 4° C. for 30 minutes. Following incubation plates were washed 3 times by spinning down at 1500 rpm for 3 minutes, flicked and 100 μl of FACS buffer were added. […] Flow data was analyzed in FlowJo software.

GM-CSFRα = target: T2, GM-CSFRα (Homo sapiens (Human), UniProt P15509 23-320); test: biolayer interferometry, HT12-GL on the sensor, GM-CSFRa-His in solution
T2 construct: also called GM-CSFRa; GM-CSFRa sample; not shown: His tag
T2 sequence: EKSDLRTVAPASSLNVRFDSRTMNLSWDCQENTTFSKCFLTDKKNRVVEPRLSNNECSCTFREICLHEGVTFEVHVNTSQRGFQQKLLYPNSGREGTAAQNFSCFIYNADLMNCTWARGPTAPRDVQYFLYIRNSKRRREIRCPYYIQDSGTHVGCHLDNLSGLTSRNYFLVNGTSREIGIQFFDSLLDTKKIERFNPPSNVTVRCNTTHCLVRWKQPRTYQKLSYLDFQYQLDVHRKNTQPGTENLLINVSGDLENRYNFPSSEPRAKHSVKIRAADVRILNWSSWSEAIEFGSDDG
Method: Biolayer interferometry binding experiments were performed using an Octet RED384 instrument, with all measurements made at 30° C. AHC biosensor probes were soaked in kinetics buffer (PBS pH 7.2+0.02% Tween-20, 0.1% BSA, 0.05% sodium azide) for 10 minutes, followed by baseline signal measurement in kinetics buffer for 60 seconds. […] For binding to hIL3-Rα, the antibody-loaded biosensor tips were dipped in binding buffer for 60 sec (baseline), followed by immersion in a solution containing dilutions of hIL3-Rα (10-0.16 μg/mL) for 300 sec (association), and subsequent immersion in kinetics buffer for 400 sec (dissociation). For binding to hIL5-Rα and GM-CSFRa, all steps were the same except the concentration of antigen was increased (50-1.56 μg/mL) and the dissociation step was decreased to 300 sec. The signal from a buffer only reference sample was subtracted, and all curves were fit with a 1:1 binding model to determine KD values.

[2] = target: T3, mouse IL3Rα expressed on 293 cells (mouse, UniProt P26952 17-396); test: flow cytometry with Alexa 647 labelled antibody on Ad293 cells expressing mouse IL3Ra, geometric mean
T3 construct: whole, on cells; also called mouse CD123
T3 sequence (looked up): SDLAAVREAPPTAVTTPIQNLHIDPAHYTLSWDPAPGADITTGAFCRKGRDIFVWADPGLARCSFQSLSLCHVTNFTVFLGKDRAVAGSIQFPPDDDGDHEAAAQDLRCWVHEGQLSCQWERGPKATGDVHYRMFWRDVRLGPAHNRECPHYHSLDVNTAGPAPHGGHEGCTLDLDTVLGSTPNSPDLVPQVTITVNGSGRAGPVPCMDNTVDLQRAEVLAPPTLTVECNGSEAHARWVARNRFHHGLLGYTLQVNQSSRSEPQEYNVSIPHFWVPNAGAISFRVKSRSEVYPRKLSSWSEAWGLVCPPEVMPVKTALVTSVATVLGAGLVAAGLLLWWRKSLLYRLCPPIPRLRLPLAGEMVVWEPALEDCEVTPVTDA
Method: AD293 cells were maintained in DMEM (Dulbecco's Modified Eagle Medium) containing 10% heat-inactivated fetal bovine serum (FBS) and were cultured in a humidified atmosphere of 5% CO2 and at a temperature of 37° C. On the day of plating, cells were spun down at 1500 rpm for 3 minutes, counted, and resuspended to a final concentration of 0.3×10⁶ cells/ml. Two hundred μl of cells were plated to wells of 96 well microtiter plate. Plates were spun down at 1500 rpm for 3 minutes and flicked to remove media. One hundred μl of FACs buffer (PBS [Phosphate Buffer Saline]+2% FBS) was added to the wells. Plates were then spun again as above followed by addition of primary antibody in 100 μl of FACS buffer. […] Antibody concentration started at 12 μg/ml followed by six 1:3 dilutions (no antibody control was also run). Plates were incubated at 4° C. for 30 minutes. Following incubation plates were washed 3 times by spinning down at 1500 rpm for 3 minutes, flicked and 100 μl of FACS buffer were added. Following a final wash, 100 μl of FACS buffer containing live/dead DAPI (diamidino-2-phenylindole) stain was added to the plates. […] Flow data was analyzed in FlowJo software.

T1 sequence (P26951 19-378): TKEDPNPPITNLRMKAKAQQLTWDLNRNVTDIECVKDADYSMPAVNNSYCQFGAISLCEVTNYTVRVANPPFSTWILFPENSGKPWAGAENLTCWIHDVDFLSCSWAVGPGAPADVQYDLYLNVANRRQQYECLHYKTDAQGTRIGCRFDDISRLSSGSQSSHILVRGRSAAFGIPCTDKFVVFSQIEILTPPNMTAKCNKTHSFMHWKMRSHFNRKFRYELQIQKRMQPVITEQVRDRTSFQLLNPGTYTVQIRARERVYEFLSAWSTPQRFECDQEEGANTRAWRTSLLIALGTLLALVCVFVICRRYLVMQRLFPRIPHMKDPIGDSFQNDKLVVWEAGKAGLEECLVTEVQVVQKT

B1: HT12-GL antibody (antibody, human IgG1, kappa, V domains shown)
VH: EVQLLESGGGLVQPGGSLRLSCAASGFTFNIYAMTWVRQAPGKGLEWVSGISAGGDSTYYADSVKGRFTISRDNSKNTLYLQMNSLRAEDTAVYYCAKDRGYYYGMDVWGQGTTVTVSS
VL: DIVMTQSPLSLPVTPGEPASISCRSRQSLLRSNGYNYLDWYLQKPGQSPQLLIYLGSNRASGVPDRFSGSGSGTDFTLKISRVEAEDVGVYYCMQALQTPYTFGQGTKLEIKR
notes: elsewhere unlabeled with a secondary antibody; also called HT12-GL mAb; CD123 mAb
For B1, the “EC50 (read off the curve)” value [1] was roughly 0.04 µg/mL, the binding result (GM-CSFRα) was “no binding” and the binding result [2] was “no binding (tested: log 1.1 ug/ml (about 12 ug/ml))”.
